Experimental data published in article PMC6969876, “NADPH biosensor-based identification of an alcohol dehydrogenase variant with improved catalytic properties caused by a single charge reversal at the protein surface” (AMB Express, 2020).

Target: LbADH^K71E, variant of the NADPH-dependent alcohol dehydrogenase of Lactobacillus brevis, with N-terminal Strep-tag II (Lactobacillus brevis)
Assay: SEC; Superdex 200 increase 10/300 GL, buffer A (50 mM triethanolamine hydrochloride, 1 mM MgCl2, pH 7.0), 0.75 mL/min; apparent native mass from a calibration curve with carbonic anhydrase, bovine serum albumin, alcohol dehydrogenase and beta-amylase; affinity-purified protein loaded

stoichiometry N: 4
Substance: LbADH^K71E, variant of the NADPH-dependent alcohol dehydrogenase of Lactobacillus brevis, with N-terminal Strep-tag II (enzyme)
